T1: Flt3(h) (human, UniProt P36888 564-993, limits assumed)
T1 sequence (looked up): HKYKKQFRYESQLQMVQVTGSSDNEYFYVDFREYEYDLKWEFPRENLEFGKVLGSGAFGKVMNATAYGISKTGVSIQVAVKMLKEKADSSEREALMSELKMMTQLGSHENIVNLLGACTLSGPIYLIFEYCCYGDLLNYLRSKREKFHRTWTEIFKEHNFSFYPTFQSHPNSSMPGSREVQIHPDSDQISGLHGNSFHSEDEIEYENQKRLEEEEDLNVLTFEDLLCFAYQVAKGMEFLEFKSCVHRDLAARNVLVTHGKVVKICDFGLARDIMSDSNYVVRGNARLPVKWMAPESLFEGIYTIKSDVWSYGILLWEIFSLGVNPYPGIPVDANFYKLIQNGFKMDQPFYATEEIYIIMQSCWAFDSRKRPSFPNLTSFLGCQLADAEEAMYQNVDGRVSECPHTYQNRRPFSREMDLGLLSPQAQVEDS

T2: BrSK2(h) (human, UniProt Q8IWQ3 1-736, limits assumed)
T2 sequence (looked up): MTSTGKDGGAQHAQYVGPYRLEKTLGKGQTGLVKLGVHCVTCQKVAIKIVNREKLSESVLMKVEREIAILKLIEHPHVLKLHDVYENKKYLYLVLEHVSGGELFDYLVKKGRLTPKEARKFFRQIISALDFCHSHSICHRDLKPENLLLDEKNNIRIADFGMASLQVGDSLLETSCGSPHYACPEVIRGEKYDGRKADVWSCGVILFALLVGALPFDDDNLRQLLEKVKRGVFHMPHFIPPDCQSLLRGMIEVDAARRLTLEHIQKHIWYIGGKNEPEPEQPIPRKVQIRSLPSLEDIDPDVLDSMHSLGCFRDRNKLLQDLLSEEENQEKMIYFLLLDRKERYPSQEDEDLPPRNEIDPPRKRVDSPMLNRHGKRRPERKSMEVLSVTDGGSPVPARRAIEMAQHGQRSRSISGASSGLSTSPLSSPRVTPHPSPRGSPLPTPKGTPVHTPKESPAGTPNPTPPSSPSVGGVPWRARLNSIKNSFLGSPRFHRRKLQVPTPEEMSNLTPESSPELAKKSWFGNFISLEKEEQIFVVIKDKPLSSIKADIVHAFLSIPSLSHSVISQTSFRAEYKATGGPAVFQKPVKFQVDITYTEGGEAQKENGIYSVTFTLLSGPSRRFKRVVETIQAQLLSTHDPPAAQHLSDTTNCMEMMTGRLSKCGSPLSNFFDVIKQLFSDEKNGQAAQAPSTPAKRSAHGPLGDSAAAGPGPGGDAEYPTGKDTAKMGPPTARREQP

T3: EphA3(h) (human, UniProt P29320 566-983, limits assumed)
T3 sequence (looked up): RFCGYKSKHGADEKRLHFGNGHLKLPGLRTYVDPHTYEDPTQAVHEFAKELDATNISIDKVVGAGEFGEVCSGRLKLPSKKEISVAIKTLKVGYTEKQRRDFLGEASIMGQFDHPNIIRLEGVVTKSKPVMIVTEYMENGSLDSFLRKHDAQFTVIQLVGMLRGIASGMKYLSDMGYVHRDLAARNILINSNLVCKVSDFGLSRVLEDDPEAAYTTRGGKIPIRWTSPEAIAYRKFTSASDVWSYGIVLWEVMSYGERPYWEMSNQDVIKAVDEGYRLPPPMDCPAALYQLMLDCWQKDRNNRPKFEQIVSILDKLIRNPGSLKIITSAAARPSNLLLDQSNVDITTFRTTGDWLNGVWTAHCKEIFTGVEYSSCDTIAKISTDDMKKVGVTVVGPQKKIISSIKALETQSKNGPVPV

T4: EphB2(h) (human, UniProt P29323 565-986, limits assumed)
T4 sequence (looked up): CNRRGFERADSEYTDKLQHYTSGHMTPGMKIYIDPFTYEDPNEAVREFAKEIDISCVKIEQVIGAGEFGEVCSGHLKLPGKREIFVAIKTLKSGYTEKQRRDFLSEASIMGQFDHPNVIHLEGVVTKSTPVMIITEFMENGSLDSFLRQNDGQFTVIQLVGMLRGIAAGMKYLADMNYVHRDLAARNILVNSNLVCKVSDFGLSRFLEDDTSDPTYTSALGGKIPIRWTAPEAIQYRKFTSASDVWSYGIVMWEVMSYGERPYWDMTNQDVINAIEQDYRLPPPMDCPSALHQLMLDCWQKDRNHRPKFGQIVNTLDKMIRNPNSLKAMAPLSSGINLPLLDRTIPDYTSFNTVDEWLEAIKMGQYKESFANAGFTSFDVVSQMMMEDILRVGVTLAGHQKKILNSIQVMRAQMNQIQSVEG


Columns and labels:
Assay in all cases: cell-based or functional assay
Flt3(h) = molecular target: T1, Flt3(h)
Fyn(h) = Fyn(h) (human, UniProt P06241 1-537)
MAPK2(h) = MAPK2(h) (human, UniProt P28482 1-360)
MELK(h) = MELK(h) (human, UniProt Q14680 1-340, limits assumed)
NEK7(h) = NEK7(h) (human, UniProt Q8TDX7 1-302)
Pim-3(h) = Pim-3(h) (human, UniProt Q86V86 1-326)
BrSK2(h) = molecular target: T2, BrSK2(h)
CaMKI(h) = CaMKI(h) (human, UniProt Q14012 1-370)
CDK2/cyclinA(h) = CDK2/cyclinA(h) (human, UniProt P24941 1-298; P20248 1-432)
EGFR(h) = EGFR(h) (human, UniProt P00533 696-1210, limits assumed)
EphA3(h) = molecular target: T3, EphA3(h)
EphB2(h) = molecular target: T4, EphB2(h)
Fer(h) = Fer(h) (human, UniProt P16591 541-822, limits assumed)
Fer(h), sequence (P16591 541-822 limits assumed): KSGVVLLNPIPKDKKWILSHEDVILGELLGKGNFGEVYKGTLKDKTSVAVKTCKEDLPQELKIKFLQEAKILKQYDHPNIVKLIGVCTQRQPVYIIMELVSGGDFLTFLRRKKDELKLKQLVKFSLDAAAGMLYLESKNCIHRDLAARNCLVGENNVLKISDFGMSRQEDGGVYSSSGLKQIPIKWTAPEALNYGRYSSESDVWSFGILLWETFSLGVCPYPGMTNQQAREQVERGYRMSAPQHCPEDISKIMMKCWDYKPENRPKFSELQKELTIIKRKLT

Fyn(h), sequence (P06241 whole entry): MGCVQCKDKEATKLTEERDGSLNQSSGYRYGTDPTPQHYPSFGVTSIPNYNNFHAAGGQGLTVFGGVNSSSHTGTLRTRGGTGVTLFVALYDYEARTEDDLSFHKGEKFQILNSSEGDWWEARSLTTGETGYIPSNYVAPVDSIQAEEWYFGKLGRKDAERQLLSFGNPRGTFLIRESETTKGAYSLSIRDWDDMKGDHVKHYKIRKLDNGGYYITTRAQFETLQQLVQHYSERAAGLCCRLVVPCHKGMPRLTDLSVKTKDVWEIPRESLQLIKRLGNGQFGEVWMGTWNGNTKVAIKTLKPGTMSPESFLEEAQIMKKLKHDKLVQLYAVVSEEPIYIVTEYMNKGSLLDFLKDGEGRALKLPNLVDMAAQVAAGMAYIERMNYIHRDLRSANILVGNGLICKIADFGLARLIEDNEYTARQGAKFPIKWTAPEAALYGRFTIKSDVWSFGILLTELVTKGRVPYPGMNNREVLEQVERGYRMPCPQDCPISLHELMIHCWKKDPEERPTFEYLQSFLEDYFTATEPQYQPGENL
CaMKI(h), sequence (Q14012 whole entry): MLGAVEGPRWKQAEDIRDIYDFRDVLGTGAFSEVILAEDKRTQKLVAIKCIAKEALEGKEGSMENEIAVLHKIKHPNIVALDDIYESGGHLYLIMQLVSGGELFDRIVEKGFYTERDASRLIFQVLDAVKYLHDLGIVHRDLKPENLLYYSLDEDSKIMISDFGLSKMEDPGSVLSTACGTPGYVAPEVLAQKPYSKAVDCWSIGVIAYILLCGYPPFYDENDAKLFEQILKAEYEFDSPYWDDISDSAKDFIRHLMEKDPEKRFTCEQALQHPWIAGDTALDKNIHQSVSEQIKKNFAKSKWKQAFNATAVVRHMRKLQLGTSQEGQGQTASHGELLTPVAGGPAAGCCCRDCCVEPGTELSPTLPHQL
MAPK2(h), sequence (P28482 whole entry): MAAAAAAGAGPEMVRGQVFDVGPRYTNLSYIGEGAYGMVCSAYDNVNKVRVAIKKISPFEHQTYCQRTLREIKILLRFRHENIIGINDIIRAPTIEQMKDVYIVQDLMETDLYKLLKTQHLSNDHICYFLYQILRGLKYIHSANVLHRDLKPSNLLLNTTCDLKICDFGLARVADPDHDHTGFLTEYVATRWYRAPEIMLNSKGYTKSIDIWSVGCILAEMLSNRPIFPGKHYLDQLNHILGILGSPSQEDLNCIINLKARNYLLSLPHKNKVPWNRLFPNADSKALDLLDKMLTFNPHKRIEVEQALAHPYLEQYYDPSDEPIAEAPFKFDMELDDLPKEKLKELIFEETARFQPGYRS
NEK7(h), sequence (Q8TDX7 whole entry): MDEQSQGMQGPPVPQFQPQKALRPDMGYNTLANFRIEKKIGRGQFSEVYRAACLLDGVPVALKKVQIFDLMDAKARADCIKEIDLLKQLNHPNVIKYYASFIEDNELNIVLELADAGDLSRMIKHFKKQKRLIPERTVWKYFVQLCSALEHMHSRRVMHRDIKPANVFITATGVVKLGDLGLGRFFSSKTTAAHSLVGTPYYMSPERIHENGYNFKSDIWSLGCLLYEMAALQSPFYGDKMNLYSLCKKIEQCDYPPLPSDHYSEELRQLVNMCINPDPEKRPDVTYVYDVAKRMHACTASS
MELK(h), sequence (Q14680 1-340 limits assumed): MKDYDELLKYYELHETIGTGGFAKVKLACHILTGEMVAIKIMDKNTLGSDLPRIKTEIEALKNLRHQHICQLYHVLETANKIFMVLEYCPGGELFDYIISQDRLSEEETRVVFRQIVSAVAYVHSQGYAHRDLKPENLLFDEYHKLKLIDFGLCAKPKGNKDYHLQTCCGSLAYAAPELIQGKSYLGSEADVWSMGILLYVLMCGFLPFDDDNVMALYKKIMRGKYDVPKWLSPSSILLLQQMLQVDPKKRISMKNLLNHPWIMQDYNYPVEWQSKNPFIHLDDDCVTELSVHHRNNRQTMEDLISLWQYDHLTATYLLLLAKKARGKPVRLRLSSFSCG

| Binder | % activity, 100 µM (Flt3(h)) [%] | % activity, 100 µM (Fyn(h)) [%] | % activity, 100 µM (MAPK2(h)) [%] | % activity, 100 µM (MELK(h)) [%] | % activity, 100 µM (NEK7(h)) [%] | % activity, 100 µM (Pim-3(h)) [%] | % activity, 100 µM (BrSK2(h)) [%] | % activity, 100 µM (CaMKI(h)) [%] | % activity, 100 µM (CDK2/cyclinA(h)) [%] | % activity, 100 µM (EGFR(h)) [%] | % activity, 100 µM (EphA3(h)) [%] | % activity, 100 µM (EphB2(h)) [%] | % activity, 100 µM (Fer(h)) [%] |
| --- | --- | --- | --- | --- | --- | --- | --- | --- | --- | --- | --- | --- | --- |
| KAFAKLAARLYRKALARQLGVAA [MMI-0400] | 18 | 54 | 93 | 17 | 87 | 80 | 86 | 0 | 92 | 16 | 12 | 22 | 108 |
| FAKLAARLYRKALARQLGVAA [MMI-0300] | 84 | 74 | 98 | 16 | 84 | 80 | 83 | 1 | 86 | 21 | 6 | 18 | 130 |

Source: patent US20140072613A1 (published 2014)
